# From the RNAGym collection of RNA variant scans (doi:10.1073/pnas.2313332121)
# B1: TPR t1 (parent)
# chain: GACCAAUCUGCCCUCAGAGCUCGAGAACAUCUUCGGAUGCAGAGGAGGCAGGCUUCGGUGGCGCGAUAGCGCCAACGUCCUCAACCUCCAAUGCAUCCCACCACAUGAUGAUGCCUGAAGAGCCUUGGUUUUUUG
# Variants of: B1
# Assay: polymerase ribozyme fitness, log enrichment relative to wild type (log ratio); higher = more active; in vitro selection for triplet polymerase activity
# Method in brief: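 Fitness is a logarithmic measure of how a genotype enriched relative to the wild type, with replicate averages weighted by inverse variance. The logarithm uses base 2, and enrichment came from Illumina sequencing of input and output libraries. Those libraries were PCR-built, transcribed mutants of each subunit of a heterodimeric triplet polymerase ribozyme, passed through one triplicate in vitro selection round that included frozen incubation at −7 °C, gel excision of extended constructs and streptavidin-bead capture. Genotypes were kept only if they had ≥10 input reads and ≥1 read per output.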
row,Variant,polymerase ribozyme fitness (log ratio)
1,G36C C53A C115U U116G,-4.36
2,A37U C86U A105G A121C U132C,-1.31
3,A37U C53A G63A C94G G120C U131A,-3.11
4,A37U C114A,-0.828
5,G36C C114A G120A,-2.49
6,G36U G48U,-2.23
7,G36U G48A,-1.52
8,A37G U81G A84C,-5.14
9,A37C C85A G113C,-3.33
10,G36C U54G G61U,-5.87
11,A37C G42U C88A A111G,-4.05
12,A37G C64A,-6.74
13,G36U C40U G51U A68G C72U A111U A119C G120A,-8.09
14,A37U C97U,-2.15
15,G36U A111G U133G,-2.38
16,G36U U38C C72A C115G A118U C124G U131C,-5.85
17,G36U G60A G113A,-1.62
18,A37U C70A,-1.11
19,G36C U54G C73A,-2.09
20,A37G C70U C79A,-3.05
21,A37C C49A A66C C104U U125G,-1.63

row,Variant,polymerase ribozyme fitness (log ratio)
1,A37C A41G C53A C88U,-0.41
2,G36U U59A A90G C97G U106C,-1.98
3,G36U G71C,-1.92
4,A37G A121G,2.3
5,G36U U78G C97A,-0.315
6,A37G C40U,-1.48
7,A37U A83U U96A C124U U131A,1.19
8,G36C A66G C72U,-3.78
9,A37C A75U C89U C102A,-2.92
10,A37G G60U U112C C123G,-0.195
11,A37U G48A C97U G110U U125C,-6.59
12,G36C C86A,-1.45
13,G36C C86U,-1.65
14,A37U A43G G60A,-2.78
15,G36C G63U C98U,-3.08
16,A37U C97G U112C,-4.07
17,G36C G60A,-0.627
18,A37G U55C C56A C88A,-4.55
19,A37G C104U G113A U130G,-1.23
20,A37U G44A G52U C79A G113U G120U,-5.01
21,A37G C70U,-0.719

row,Variant,polymerase ribozyme fitness (log ratio)
1,A37C A46G G61U C64U,-5.42
2,G36U A90G C97G U106C,-1.51
3,A37C G60U C101G,-1.57
4,G36C C40A,-1.42
5,G36U G39A C53A C94G C124G G127C,-2.11
6,A37U A74C C102A C104U,-2.41
7,G36U A103G,-4.73
8,G36U U78G C115G,-4.29
9,A37C C64U U92G,-2.59
10,G36C U78C A95C,-2.98
11,A37C G39A C62U,-3.21
12,A37U C82G,-0.955
13,G36U G42U,-3.46
14,A37C G45A A83C A100U G113C,-4.29
15,G36C C40G C72U C73A,-5.31
16,G36U C40A U81A G120C G122A,-4.24
17,A37G C115U,-0.85
18,G36U G71A G120C C123G,-1
19,G36U U132A,-0.893
20,G36C C53G C56A A95U,-2.45
21,G36C C64U C85U,-1.78

row,Variant,polymerase ribozyme fitness (log ratio)
1,A37G G47C C64U U87A G120C C124G,-3.3
2,G36U G71U G117A,-4.25
3,A37G G42C,-1.89
4,A37C G61A C73U,-0.816
5,A37U C73A,-0.559
6,G36C G51C C70U U87A C94U C123U,-5.76
7,A37C C40U U55C A91C,-3.28
8,A37C G63C G77C C88U A105U,-5.64
9,G36C U55G,-1.03
10,A37G G57A U106C G120C U129A,-3.11
11,A37U C72U A75U U78G C124A,1.33
12,A37C G48U A108U G120C,-5.53
13,A37C C49A G69U G77C C85A,-3.32
14,G36C G47A G110A G127U,-2.57
15,G36U C49U C64U G113A C115U G128U,-6.05
16,G36U G48U U78A,-2.21
17,A37U C89A A95U C123A,-3
18,A37U G39U C72U U125G,-3.21
19,A37C G61U U109A,-5.9
20,A37C A68G,-2.51
21,G36U G58C G71C A91U G120U,-4.22
